Data: US20080261267A1, “Cellulases from Rumen” (priority 2004, published 2008)

Columns and labels:
Type in all cases: biochemical
[1] = Specific activity of purified endoglucanases; conditions: purified to homogeneity; pH 5.6 and 50° C.; CMC as substrate
Experimental: FIG. 2 represents Table 2 which contains the data obtained by purification of endoglucanases of seven clones (pBKRR.1, 9, 11, 13, 14, 16 and 22) with respect to the specific activity. […] They were purified to homogeneity and their specific activity was estimated at pH 5.6 and 50° C., using CMC as substrate.
The endoglucanases were recovered from 1-liter shaked flask fermentations, in Luria-Bertany broth plus 50 μg of Kanamycin per ml. One gram of fermentation broth was mixed with 10 ml of standard buffer in a 50-ml Falcon tube. The solution was vortexed and then incubated with DNase I grade II, for 30-45 min, and then sonicated for 4 min total time. A sample of the soluble fraction was separated from insoluble debris by centrifugation (10,000×g, 30 min, 4° C.) and proteins were precipitated by addition of 80% chilled acetone (−20° C.). Proteins were resuspended in standard buffer and stored at −20° C. at a concentration of 5 mg/ml until use. The amount of protein expression was examined using SDS-PAGE with 10-12% acrylamide. […] The gel region containing the active cellulase, detected in a parallel track by activity staining (using Ostazin brillian-blue carboxymethyl cellulose) was excised, suspended in two volumes of standard fuffer and homogenized in a glass tissue homogenizer. […]
The standard cellulase activity was determined in a continuous spectrophotometric assay by measuring the release of reducing sugars from the 4% (wt/vol carboxymethyl cellulose (CMC) in 0.5-ml reaction mixtures containing 50 mM sodium acetate buffer, pH 5.6, at 40° C., using the dinitrosalycilic acid (DNS) method (Bernfeld, P. (1955) Amilases and b. In: Colowick S P, Kaplan N O (eds). Methods in Enzymology, Academic Press, New York pp. 133-155). The reaction was performed in 0.5 ml scale containing 20 mg substrate and 5 mg lyophilised cells or 0.1 mg purified enzyme. Reactions were allow to proceed for a time period of 5-30 min after which the samples were centrifuge (10,000×g, 3 min). […] Finally, each well was diluted with 150 μl water and the absorbance at 550 nm was measured. […]

[2] = pH-dependent activity and pH stability; conditions: cell lysates; CMC; pH 3.5 to 10.5 at 40° C.
Experimental: (§1) FIG. 3 represents Table 3 giving an overview over the biochemical properties of the cellulases according to the invention. Reaction was performed at the optimum pH and temperature for each done using CMC as substrate. […] The values for clones pBKRR.1, 9, 11, 13, 14, 16 and 22 are depicted. For each clone the following data are given: • maximum pH at which the remaining activity after 24 h incubation at the indicate pH is >90% (column “Stable at pH”). […] Activity was measured after 2 h incubation and compared with a control reaction in buffer lacking dimethylsulfoxide, • detergent resistance given by the remaining activity in the corresponding buffer (optimum pH) containing the indicate detergent at a concentration for 0 to 3%. […]
(§2) FIG. 4 a-c represent the results of the determination of pH and temperature optima showing graphically views of the pH-dependence activity and temperature-dependence activity of the polypeptides according to the invention. The pH optima of rumial endoglucanases were measured under conditions described in Example 5: 4% CMC, 0.5 mL of 50 mM buffer at the corresponding pH and 0.1 mg E. coli cell lysates, for 5-30 min, at 40° C. Effect of temperature on endoglucanase activity was measured in 50 mM sodium acetate buffer pH 5.6. […]

[3] = Thermal activity and thermostability; conditions: at the pH optima; CMC
Experimental: as §1, §2

Cation dependence = conditions: 10 to 100 mM
Experimental: FIG. 3 represents Table 3 giving an overview over the biochemical properties of the cellulases according to the invention. Reaction was performed at the optimum pH and temperature for each done using CMC as substrate. […] The values for clones pBKRR.1, 9, 11, 13, 14, 16 and 22 are depicted. For each clone the following data are given: • maximum pH at which the remaining activity after 24 h incubation at the indicate pH is >90% (column “Stable at pH”). […] Activity was measured after 2 h incubation and compared with a control reaction in buffer lacking dimethylsulfoxide, • detergent resistance given by the remaining activity in the corresponding buffer (optimum pH) containing the indicate detergent at a concentration for 0 to 3%. […] The effect of mono- (Na^+, K^+, NH4^+, and divalent cations (Ca^2+, Mn^2+, Mg^2+, Sr^2+, Fe^2+, Cu^2+, Ni^2+, Co^2+, Zn^2+) was first examined by treating the enzyme with chelating agents (EDTA and EGTA) to remove any endogenous divalent cations, followed by adding cations to the reaction mixture.
[…] Inhibitors such as N-ethylmalemide, iodoacetate and p-chloromercuribenzoate at concentration from 1-5 mM were incubated in the presence of the enzyme for 30 min (30° C.) prior to the addition of the substrate (CMC). The effects of detergents on the endoglucanase activity was analysed by adding of 1-3% (wt/vol) detergent to the enzyme solution. In all cases, the enzyme activity was assayed in triplicate using the standard cellulose assay described above and the residual activity was expressed as percent of the control value (without addition of chemicals).

[4] = TLC analysis of hydrolysis products; conditions: pH 5.6, 50° C.
From the text: FIG. 7 depicts the result of thin layer chromatography TLC analysis of products of CMC hydrolyzed by endoglucanases derived from a rumial genomic DNA library. The methods used for cellulase and substrate preparation, hydrolysis, TLC, and visualization are described in Example 5. The hydrolysis products glucose, cellobiose, cellotriose are shown an the right side. […] Different pattern was found when using short-chain beta-1,4-glucans.
The products formed by hydrolysis of cellulose-based substrates (cellobiose, cellotetraose, cellopentaose, cellulose and carboxymethyl cellulose) were analysed by thin-layer chromatography (TLC). Solutions containing 20 μg of E. coli cell lysate proteins and 0.2% (wt/vol) substrate in 50 mM acetate buffer (pH 5.6) were incubated at 50° C. until maximum conversion was achieved. The reactions were terminated by heating the preparation for 5 min at 95° C. and hydrolysis products were separated by TLC on silica gel plates (Merck, Darmstadt, Germany) by using a mixture chloroform, glacial acetic acid, and water (6:14:1) as the solvent. […] Sugars were visualized by heating 105° C. for 15 min the plates which were previously sprayed with a reagent containing amine (2 ml), diphenylamine (2 g), acetone (100 ml) and 85% H3PO4 (15 ml).

B1: pBKRR.11: rumen endo-beta-1,4-glucanase, sequences FIG. 14/22 (protein)
chain: MRILKLFFIALITAAPIFSYAQTVDDMKSVFVDAHTWTASIKMGWNLGNALECQTGWNDKAFCWNPANNFNAETSWGNPKTTKEMLQAVREAGFDAVRIPVNWGAHISDESTCTIDAAWMNRVQEVVDWALQLGFKVLLNTHHEYWLEWHPTYDREQANNNKLAKIWMQVANRFKDYGPDLAFAGINEVHLDGKWNVPTEENTAVTNSYNQTFVNTVRATGGNNLYRNLVVQCYSCNPDYGLTGFVVPADKVENRLSIEYHYYRPWDYAGDAPKYYYWGEAYKQYGEVSTADNEAKVNADFARYKAAWYDKGLGVIMGEWGASQHYQVESKAKQLENLYYHFKTVREAAQKNNIATFVWDNNACGNGGDKFGIFDRNDNMSVAFPEALNAIQEASGQTVVDYSRQALQPSVVYQGDELMNWGEGKQLIIAGSKFAYFTAESKLMVTLDAEPGADYDMLQFAYGDWKSKPLMIISGRSYKGQVEPSKINGSRNTYTLFIGFKESSLNQLKDKGITLQGHGLRLRNVVVMPEGLVLGL
modifications: Description of sequence sequence derived from genomic DNA library from rumen ecosystem, particularly amino acid sequence of clones pBKRR 11, 10 and 12; RR10=RR11=RR12; (see Figure 22)
[1]
  specific activity: 6.42 µmol/min/mg
[2]
  pH of highest (maximal) activity: 4.5 pH
[3]
  temperature of improved activity and thermostability: 50 °C
Cation dependence; chloride salt
  stimulatory effect of Mg^2+: 127%
Cation dependence; chloride salts, after EDTA and EGTA treatment
  influence of mono- and divalent cations on activity: not influenced
[4]
  main hydrolysis products of CMC: cellobiose and cellotriose
